± gives the half width of the 95% confidence interval.
Assays:
[1] = folding stability dG unfold from chymotrypsin proteolysis; higher = more stable
Experimental: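 Folding stability of de novo designed mini-proteins (<80 aa, no Cys; designed by TrROS, TrMRF, ProteinMPNN and the joint model) was measured by cDNA display proteolysis with trypsin and chymotrypsin. Each protease was used at 11 concentrations in a threefold dilution series plus a no-protease condition. K50 was inferred by Bayesian fitting of sequencing counts, and dG unfold was derived against a sequence-predicted unfolded-state K50 (Tsuboyama et al. method). Sequences shown include variable-length N-terminal GS-type padding (SAGGSAGG...) inside a display construct carrying a PA tag. Rows were kept only if the AF2 dimer inter-PAE was >15, to exclude likely homo-oligomers.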

[2] = folding stability dG unfold (combined trypsin and chymotrypsin); higher = more stable
Method in brief: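 Designed mini-proteins with no cysteine and under 80 residues were kept only if AlphaFold2 dimer inter-PAE was above 15. In a PA-tagged cDNA display construct, they were digested with trypsin and chymotrypsin and then sequenced. K50 was inferred by Bayesian fitting of counts, and unfolding free energy was derived per protease or combined against a sequence-predicted unfolded-state K50 and a shared folded-state K50.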

Sequence | folding stability dG unfold [1] [kcal/mol] | folding stability dG unfold [2] [kcal/mol]
SAGGSAGGSAGGSPILIPRPDDYVLVVRIEEPRPLPDGDLAPPRIDVRLMPREEVERLLSAGGSAGGSAGGS [r4_238_TrMRF] | 0.992 ± 0.08 | 0.378 ± 0.12
SAGGSAGGSAGGSPVLKTEEKALPNGTVVTTEFLPGGRRREVITPPDGTVKVVEREIERSAGGSAGGSAGGS [r10_1184_JUSTAS] | 0.356 ± 0.019 | -0.0994 ± 0.095
SAGGSAGGSAGGSRYLRIETDRIDDVVEAALKTPGVEEVRVDTPADDRFYVLVKVPDEVSAGGSAGGSAGGS [r4_1_TrMRF] | -1.13 ± 0.92 | < -1
SAGGSAGGSAGGSSARVPFPATGAVLEVRVTPDGRPRVRVFNPATGEVVEFPPGAEVGVSAGGSAGGSAGGS [r4_158_TrMRF] | 0.762 ± 0.036 | 0.0259 ± 0.13
SAGGSAGGSAGGSSMKEVTLYVPPGTLDPAVVEKLREEGVKVTVVPVPLSREPDGPPVASAGGSAGGSAGGS [r4_294_JUSTAS] | 0.965 ± 0.17 | 0.0503 ± 0.38
SAGGSAGGSAGGSSMKYFTRSASPDTTFTVKTPNGGVVNVTPTAAPGTYKYTFTLPGNSSAGGSAGGSAGGS [r4_360_JUSTAS] | -0.42 ± 0.44 | < -1
SAGGSAGGSAGGSSSMVEVEVESEEELEAYLEPLAARGVEVTLTSRDPETGRWLLRVTPPSAGGSAGGSAGG [r7_964_JUSTAS] | 0.233 ± 0.2 | -0.0911 ± 0.2
SAGGSAGGSAGGSVTIPVPENVKVRIYPPNGGRREVTAAAGATITVPAPGGEEVRIEVETSAGGSAGGSAGG [r7_357_TrMRF] | 0.715 ± 0.021 | 0.193 ± 0.1
SAGGSAGGSAGGSWRVRIDLPNGKSRTIPIKPGEEVDLNEIADELSDKYNIKSISIEEPSAGGSAGGSAGGS [r4_116_TrROS] | 0.42 ± 0.14 | -0.158 ± 0.29
SAGGSAGGSAGGTIKKVSDGTIVIPVPNPHQAEKFADTLMEKNNGRDVKIKVFPPEDFGPSAGGSAGGSAGG [r7_645_TrROS] | -0.264 ± 0.1 | < -1
SAGGSAGGSAGGVLYLPDDVKVELVEVTPDGVAKLRVYVYEKDDGDPLVPVPGYDPGAGSAGGSAGGSAGGS [r10_934_TrMRF] | 0.126 ± 0.36 | -0.777 ± 0.48
SAGGSAGGSAGGWIVRIEHGGKERMFQFDSPEEIKDQIRPMFPNGKKVKVEVMPPDDLKSAGGSAGGSAGGS [r10_1167_TrROS] | -0.0912 ± 0.16 | -0.483 ± 0.21
SAGGSAGGSAGIPADAPEAVVRLDLYPDGPDTVVTVEAPFKDIPLDDIPENAVVRLEASPLGSAGGSAGGSA [r18_21_TrMRF] | 0.0909 ± 0.06 | -0.539 ± 0.1
SAGGSAGGSAGKALVFDSPEDLVEKLKENGVELTDIAEVDAPGGPVVLAPIEGIPKPGFGSAGGSAGGSAGG [r11_141_TrMRF] | 0.633 ± 0.065 | 0.28 ± 0.16
SAGGSAGGSAGKKFKITEIHPGDNHHHITVKWKRDGKKRERTVMVPSGPEMAKKADIIIISAGGSAGGSAGG [r11_921_TrROS] | -0.547 ± 0.48 | < -1
SAGGSAGGSAGMEVIINDPEKAKNIPVNSKVKLPNGKEYKVKKVEYNPEIGYVKFIVSPESAGGSAGGSAGG [r11_316_TrMRF] | -0.489 ± 0.37 | -0.588 ± 0.34
SAGGSAGGSAGMKLIEFPPGEEFEEFIKNLPGPIKSVERTKIEPEKVLAKIVLELPPSNLSAGGSAGGSAGG [r11_143_JUSTAS] | -0.545 ± 0.36 | < -1
SAGGSAGGSAGMKTRVTTFTYTEPVLLPDTGELRTVTTTVTFNKPLPEEPLFFTNTPNAGSAGGSAGGSAGG [r17_493_JUSTAS] | 0.149 ± 0.19 | -0.158 ± 0.19
SAGGSAGGSAGMKVKSIKKLSKDPKNGKETFEITIPENGEKVTIETEPGKFEEVKKKLLKSAGGSAGGSAGG [r17_111_JUSTAS] | 0.359 ± 0.089 | -0.0508 ± 0.13
SAGGSAGGSAGMLKTIVIKELTPEAKKALLENPDLPEDAEVPTLVEELTVPVKRTPKGLVSAGGSAGGSAGG [r17_194_JUSTAS] | -0.0656 ± 0.077 | -0.398 ± 0.13
SAGGSAGGSAGMLTTKTITLPHAPDDPAAFRAAVLKGLPPELPVLSVDYDPATGTGTVVASAGGSAGGSAGG [r11_698_JUSTAS] | 0.0666 ± 0.31 | < -1
SAGGSAGGSAGMPLEELAQEALNQFQENGEPVEIDIEVETPNGEYFPFEVEINGDGLKIRSAGGSAGGSAGG [r11_954_TrROS] | 0.455 ± 0.068 | -0.0909 ± 0.32
SAGGSAGGSAGMTLVKTYERFPETGTVVERLSAREPDGPTVPLEVTKVRPVAGEEPVPLLSAGGSAGGSAGG [r11_750_JUSTAS] | -0.665 ± 0.23 | < -1
SAGGSAGGSAGNADQIKEIARKYAPKNGMKPKDVDIEVEERENPNGKKELHIDVEGEYKNSAGGSAGGSAGG [r11_414_TrROS] | 0.00121 ± 0.46 | < -1

— the supplement of paper PMC12764529
